# Test results reported in publication PMC12475165 (Nature Communications, 2025).
# B1: VP35 made by EBOV in infected cells (natural protein)
# chain: MTTRTKGRGHTAATTQNDRMPGPELSGWISEQLMTGRIPVSDIFCDIENNPGLCYASQMQQTKPNPKTRNSQTQTDPICNHSFEEVVQTLASLATVVQQQTIASESLEQRITSLENGLKPVYDMAKTISSLNRVCAEMVAKYDLLVMTTGRATATAAATEAYWAEHGQPPPGPSLYEESAIRGKIESRDETVPQSVREAFNNLNSTTSLTEENFGKPDISAKDLRNIMYDHLPGFGTAFHQLVQVICKLGKDSNSLDIIHAEFQASLAEGDSPQCALIQITKRVPIFQDAAPPVIHIRSRGDIPRACQKSLRPVPPSPKIDRGWVCVFQLQDGKTLGLKI
# Molecular target: T1, EDC4 (endogenous, EBOV-infected cells) (UniProt Q6P2E9 1-1401)
# T1 sequence: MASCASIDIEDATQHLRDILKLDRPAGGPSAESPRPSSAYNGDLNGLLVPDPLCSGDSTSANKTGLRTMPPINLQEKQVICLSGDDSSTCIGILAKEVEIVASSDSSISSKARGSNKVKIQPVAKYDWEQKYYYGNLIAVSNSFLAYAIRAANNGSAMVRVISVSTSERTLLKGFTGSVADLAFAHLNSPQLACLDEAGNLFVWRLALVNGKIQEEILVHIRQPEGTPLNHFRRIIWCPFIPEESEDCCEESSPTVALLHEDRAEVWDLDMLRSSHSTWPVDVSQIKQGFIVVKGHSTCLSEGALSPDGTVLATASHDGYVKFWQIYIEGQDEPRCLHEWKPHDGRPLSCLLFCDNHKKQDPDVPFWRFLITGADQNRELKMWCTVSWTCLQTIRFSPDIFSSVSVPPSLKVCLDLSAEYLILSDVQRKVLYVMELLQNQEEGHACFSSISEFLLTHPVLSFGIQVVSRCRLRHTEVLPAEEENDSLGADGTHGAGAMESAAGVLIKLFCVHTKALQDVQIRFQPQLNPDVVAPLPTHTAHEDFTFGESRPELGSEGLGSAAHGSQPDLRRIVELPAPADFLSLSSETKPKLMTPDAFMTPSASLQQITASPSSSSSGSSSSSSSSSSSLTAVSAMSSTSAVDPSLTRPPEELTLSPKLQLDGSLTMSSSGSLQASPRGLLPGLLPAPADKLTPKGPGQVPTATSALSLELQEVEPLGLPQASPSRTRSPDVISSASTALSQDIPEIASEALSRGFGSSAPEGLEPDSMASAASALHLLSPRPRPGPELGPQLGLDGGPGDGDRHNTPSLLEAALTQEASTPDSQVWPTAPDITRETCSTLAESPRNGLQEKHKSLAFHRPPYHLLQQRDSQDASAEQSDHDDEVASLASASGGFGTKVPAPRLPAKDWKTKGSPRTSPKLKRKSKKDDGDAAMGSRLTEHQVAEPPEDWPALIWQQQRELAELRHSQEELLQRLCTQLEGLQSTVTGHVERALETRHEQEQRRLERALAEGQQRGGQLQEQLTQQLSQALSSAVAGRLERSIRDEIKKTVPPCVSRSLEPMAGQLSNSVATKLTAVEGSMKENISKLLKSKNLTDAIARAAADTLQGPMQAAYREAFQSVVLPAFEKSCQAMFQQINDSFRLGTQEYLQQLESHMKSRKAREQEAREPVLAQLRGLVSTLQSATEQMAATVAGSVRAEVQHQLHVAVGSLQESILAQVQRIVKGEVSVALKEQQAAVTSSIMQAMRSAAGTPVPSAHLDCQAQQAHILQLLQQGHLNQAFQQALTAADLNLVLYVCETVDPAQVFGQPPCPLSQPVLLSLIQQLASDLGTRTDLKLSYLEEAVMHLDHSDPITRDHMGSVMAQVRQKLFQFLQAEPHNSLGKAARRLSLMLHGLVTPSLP
# Assay: proximity ligation
# Settings: partners not purified
binder,measurement,value
B1,"PLA puncta per cell, fold over uninfected cells",6 fold
